Reference: IntAct's records for PubMed 17641687

B1: Kinesin-like protein KIF16B (Homo sapiens), Q96L93 (parent)
chain: MASVKVAVRVRPMNRREKDLEAKFIIQMEKSKTTITNLKIPEGGTGDSGRERTKTFTYDFSFYSADTKSPDYVSQEMVFKTLGTDVVKSAFEGYNACVFAYGQTGSGKSYTMMGNSGDSGLIPRICEGLFSRINETTRWDEASFRTEVSYLEIYNERVRDLLRRKSSKTFNLRVREHPKEGPYVEDLSKHLVQNYGDVEELMDAGNINRTTAATGMNDVSSRSHAIFTIKFTQAKFDSEMPCETVSKIHLVDLAGSERADATGATGVRLKEGGNINKSLVTLGNVISALADLSQDAANTLAKKKQVFVPYRDSVLTWLLKDSLGGNSKTIMIATISPADVNYGETLSTLRYANRAKNIINKPTINEDANVKLIRELRAEIARLKTLLAQGNQIALLDSPTALSMEEKLQQNEARVQELTKEWTNKWNETQNILKEQTLALRKEGIGVVLDSELPHLIGIDDDLLSTGIILYHLKEGQTYVGRDDASTEQDIVLHGLDLESEHCIFENIGGTVTLIPLSGSQCSVNGVQIVEATHLNQGAVILLGRTNMFRFNHPKEAAKLREKRKSGLLSSFSLSMTDLSKSRENLSAVMLYNPGLEFERQQREELEKLESKRKLIEEMEEKQKSDKAELERMQQEVETQRKETEIVQLQIRKQEESLKRRSFHIENKLKDLLAEKEKFEEERLREQQEIELQKKRQEEETFLRVQEELQRLKELNNNEKAEKFQIFQELDQLQKEKDEQYAKLELEKKRLEEQEKEQVMLVAHLEEQLREKQEMIQLLRRGEVQWVEEEKRDLEGIRESLLRVKEARAGGDEDGEELEKAQLRFFEFKRRQLVKLVNLEKDLVQQKDILKKEVQEEQEILECLKCEHDKESRLLEKHDESVTDVTEVPQDFEKIKPVEYRLQYKERQLQYLLQNHLPTLLEEKQRAFEILDRGPLSLDNTLYQVEKEMEEKEEQLAQYQANANQLQKLQATFEFTANIARQEEKVRKKEKEILESREKQQREALERALARLERRHSALQRHSTLGMEIEEQRQKLASLNSGSREQSGLQASLEAEQEALEKDQERLEYEIQQLKQKIYEVDGVQKDHHGTLEGKVASSSLPVSAEKSHLVPLMDARINAYIEEEVQRRLQDLHRVISEGCSTSADTMKDNEKLHNGTIQRKLKYERMVSRSLGANPDDLKDPIKISIPRYVLCGQGKDAHFEFEVKITVLDETWTVFRRYSRFREMHKTLKLKYAELAALEFPPKKLFGNKDERVIAERRSHLEKYLRDFFSVMLQSATSPLHINKVGLTLSKHTICEFSPFFKKGVFDYSSHGTG

Variants of: B1
Details: with eea1_human EEA1, Q15075
Sequence of eea1_human EEA1, Q15075 (Q15075 whole entry): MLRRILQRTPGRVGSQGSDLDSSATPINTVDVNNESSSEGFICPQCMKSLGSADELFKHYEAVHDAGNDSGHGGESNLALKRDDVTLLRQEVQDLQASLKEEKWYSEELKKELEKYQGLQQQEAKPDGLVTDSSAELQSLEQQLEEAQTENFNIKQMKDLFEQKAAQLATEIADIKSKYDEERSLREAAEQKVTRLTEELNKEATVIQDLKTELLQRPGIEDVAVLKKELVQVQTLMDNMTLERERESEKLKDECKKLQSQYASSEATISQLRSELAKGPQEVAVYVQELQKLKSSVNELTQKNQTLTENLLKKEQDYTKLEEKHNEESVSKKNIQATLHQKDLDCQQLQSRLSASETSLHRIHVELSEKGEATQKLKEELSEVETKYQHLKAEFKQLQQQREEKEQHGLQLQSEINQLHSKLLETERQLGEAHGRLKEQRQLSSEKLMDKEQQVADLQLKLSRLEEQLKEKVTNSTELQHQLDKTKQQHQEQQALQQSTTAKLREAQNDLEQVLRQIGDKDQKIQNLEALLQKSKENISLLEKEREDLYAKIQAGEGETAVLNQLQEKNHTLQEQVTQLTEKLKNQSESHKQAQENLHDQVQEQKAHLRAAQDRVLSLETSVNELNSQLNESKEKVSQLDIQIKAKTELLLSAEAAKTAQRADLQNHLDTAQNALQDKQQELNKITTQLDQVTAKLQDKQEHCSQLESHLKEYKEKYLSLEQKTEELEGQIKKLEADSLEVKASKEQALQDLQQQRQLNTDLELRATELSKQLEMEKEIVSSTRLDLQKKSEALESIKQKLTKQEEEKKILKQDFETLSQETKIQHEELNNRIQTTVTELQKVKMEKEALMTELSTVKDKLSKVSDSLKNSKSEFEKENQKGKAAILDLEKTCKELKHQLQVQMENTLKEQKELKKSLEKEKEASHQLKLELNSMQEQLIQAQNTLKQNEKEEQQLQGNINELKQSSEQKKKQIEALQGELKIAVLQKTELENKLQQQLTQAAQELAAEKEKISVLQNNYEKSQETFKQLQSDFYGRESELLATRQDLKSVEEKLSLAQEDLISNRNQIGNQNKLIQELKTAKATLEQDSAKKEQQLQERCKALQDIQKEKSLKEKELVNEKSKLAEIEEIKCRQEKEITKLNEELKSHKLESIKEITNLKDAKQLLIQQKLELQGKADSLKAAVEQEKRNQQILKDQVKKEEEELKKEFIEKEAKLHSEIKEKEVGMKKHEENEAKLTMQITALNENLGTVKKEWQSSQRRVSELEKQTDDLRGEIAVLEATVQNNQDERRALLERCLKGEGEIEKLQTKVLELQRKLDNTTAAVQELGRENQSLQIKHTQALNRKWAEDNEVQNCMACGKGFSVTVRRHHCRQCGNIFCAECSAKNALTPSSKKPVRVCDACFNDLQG

effect of a mutation on the interaction | Variant
disrupting interaction | F1249A
disrupting interaction | L1248A
